From publication PMC9482650, “Quantitative fragmentomics allow affinity mapping of interactomes” (Nature Communications, 2022)
Numbering of substitutions follows the chain as printed.

T1: FRMPD1, Q5SYB0
T1 sequence (Q5SYB0 52-145, limits assumed, looked up): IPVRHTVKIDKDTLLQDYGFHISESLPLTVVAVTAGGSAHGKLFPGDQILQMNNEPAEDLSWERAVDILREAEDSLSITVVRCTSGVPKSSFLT

T2: LIN7B, Q9HAP6
T2 sequence (Q9HAP6 88-185, limits assumed, looked up): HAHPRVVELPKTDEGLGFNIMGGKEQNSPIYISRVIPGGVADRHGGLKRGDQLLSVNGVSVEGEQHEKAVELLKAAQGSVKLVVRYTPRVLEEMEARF

T3: MPP6, Q9NZW5
T3 sequence (Q9NZW5 125-219, limits assumed, looked up): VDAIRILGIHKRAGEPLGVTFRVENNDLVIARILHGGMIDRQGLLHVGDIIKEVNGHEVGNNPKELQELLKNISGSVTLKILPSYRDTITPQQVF

T4: GRIP1_2, Q9Y3R0
T4 sequence (Q9Y3R0 145-248, limits assumed, looked up): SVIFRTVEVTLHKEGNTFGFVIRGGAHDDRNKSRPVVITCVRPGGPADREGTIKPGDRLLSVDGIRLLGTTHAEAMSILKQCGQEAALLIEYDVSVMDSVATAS

T5: APBA2_1, Q99767
T5 sequence (Q99767 563-664, limits assumed, looked up): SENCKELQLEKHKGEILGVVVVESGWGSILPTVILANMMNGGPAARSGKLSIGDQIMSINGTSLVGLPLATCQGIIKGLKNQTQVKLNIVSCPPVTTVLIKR

T6: DLG3_2, Q92796
T6 sequence (Q92796 221-321, limits assumed, looked up): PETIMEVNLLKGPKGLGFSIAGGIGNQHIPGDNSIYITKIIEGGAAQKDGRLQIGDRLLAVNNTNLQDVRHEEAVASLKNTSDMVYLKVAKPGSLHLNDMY

T7: PCLO, Q9Y6V0
T7 sequence (Q9Y6V0 4491-4600, limits assumed, looked up): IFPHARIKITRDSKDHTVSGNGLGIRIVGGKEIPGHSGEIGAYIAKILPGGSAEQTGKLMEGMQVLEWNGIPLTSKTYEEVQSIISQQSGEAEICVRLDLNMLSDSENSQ

T8: SNTG1, Q9NSN8
T8 sequence (Q9NSN8 52-150, limits assumed, looked up): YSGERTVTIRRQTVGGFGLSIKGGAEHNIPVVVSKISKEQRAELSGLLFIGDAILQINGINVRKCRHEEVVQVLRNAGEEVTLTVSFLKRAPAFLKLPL

T9: LIN7A, O14910
T9 sequence (O14910 103-200, limits assumed, looked up): T2 sequence (Q9HAP6 88-185, limits assumed, looked up) with A2S, I20V, V35I, D42E, Q65H, Q77K, G78D, R89K

T10: DVL3, Q92997
T10 sequence (Q92997 244-331, limits assumed, looked up): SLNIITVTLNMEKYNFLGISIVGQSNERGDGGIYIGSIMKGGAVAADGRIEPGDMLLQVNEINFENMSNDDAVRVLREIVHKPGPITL

T11: DLG3_1, Q92796
T11 sequence (Q92796 125-227, limits assumed, looked up): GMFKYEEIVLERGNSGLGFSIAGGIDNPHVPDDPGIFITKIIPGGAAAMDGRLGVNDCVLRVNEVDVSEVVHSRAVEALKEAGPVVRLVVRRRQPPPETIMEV

T12: PDZRN3_1, Q9UPQ7
T12 sequence (Q9UPQ7 244-349, limits assumed, looked up): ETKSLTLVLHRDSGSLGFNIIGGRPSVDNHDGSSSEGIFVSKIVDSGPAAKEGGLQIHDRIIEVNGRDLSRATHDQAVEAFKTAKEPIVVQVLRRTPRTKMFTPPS

B1: GRIA2, P42262 (peptide)
chain: NVYGIESVKI
B2: RPS6KA3, P51812 (peptide)
chain: GIKKITSTAL

target: T1, FRMPD1, Q5SYB0; experiment: holdup assay; design: key: below the threshold = too weak to quantify, mostly under pKd 3.1 to 4; details: plain residues with an end cap or a label only (N-terminal biotin on a linker: ado-ado)

| Binder | pKd |
| --- | --- |
| B1 | below the threshold |
| B2 | below the threshold |

target: T2, LIN7B, Q9HAP6; experiment: holdup assay; design: key: below the threshold = too weak to quantify, mostly under pKd 3.1 to 4; details: plain residues with an end cap or a label only (N-terminal biotin on a linker: ado-ado)

| Binder | pKd |
| --- | --- |
| B1 | 3.74 |
| B2 | below the threshold |

target: HTRA2, O43464; experiment: holdup assay; design: key: below the threshold = too weak to quantify, mostly under pKd 3.1 to 4; details: plain residues with an end cap or a label only (N-terminal biotin on a linker: ado-ado)
Sequence (O43464 355-458): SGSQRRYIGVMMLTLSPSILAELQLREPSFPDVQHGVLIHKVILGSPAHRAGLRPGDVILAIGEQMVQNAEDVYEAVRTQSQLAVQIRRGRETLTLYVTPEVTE

| Binder | pKd |
| --- | --- |
| B1 | below the threshold |
| B2 | 3.55 |

target: T3, MPP6, Q9NZW5; experiment: holdup assay; design: key: below the threshold = too weak to quantify, mostly under pKd 3.1 to 4; details: plain residues with an end cap or a label only (N-terminal biotin on a linker: ado-ado)

| Binder | pKd |
| --- | --- |
| B1 | below the threshold |
| B2 | below the threshold |

target: T4, GRIP1_2, Q9Y3R0; experiment: holdup assay; design: key: below the threshold = too weak to quantify, mostly under pKd 3.1 to 4; details: plain residues with an end cap or a label only (N-terminal biotin on a linker: ado-ado)

| Binder | pKd |
| --- | --- |
| B1 | below the threshold |
| B2 | 3.5 |

target: LNX1_3, Q8TBB1; experiment: holdup assay; design: key: below the threshold = too weak to quantify, mostly under pKd 3.1 to 4; details: plain residues with an end cap or a label only (N-terminal biotin on a linker: ado-ado)
Sequence (Q8TBB1 500-596): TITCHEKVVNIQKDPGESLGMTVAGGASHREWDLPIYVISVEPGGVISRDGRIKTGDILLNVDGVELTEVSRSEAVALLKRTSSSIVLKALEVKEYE

| Binder | pKd |
| --- | --- |
| B1 | below the threshold |
| B2 | below the threshold |

target: T5, APBA2_1, Q99767; experiment: holdup assay; design: key: below the threshold = too weak to quantify, mostly under pKd 3.1 to 4; details: plain residues with an end cap or a label only (N-terminal biotin on a linker: ado-ado)

| Binder | pKd |
| --- | --- |
| B1 | below the threshold |
| B2 | below the threshold |

target: TJP1_3, Q07157; experiment: holdup assay; design: key: below the threshold = too weak to quantify, mostly under pKd 3.1 to 4; details: plain residues with an end cap or a label only (N-terminal biotin on a linker: ado-ado)
Sequence (Q07157 416-512): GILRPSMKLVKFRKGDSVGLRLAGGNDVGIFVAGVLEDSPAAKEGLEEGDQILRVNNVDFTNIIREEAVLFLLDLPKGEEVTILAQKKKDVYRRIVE

| Binder | pKd |
| --- | --- |
| B1 | 3.62 |
| B2 | below the threshold |

target: T6, DLG3_2, Q92796; experiment: holdup assay; design: key: below the threshold = too weak to quantify, mostly under pKd 3.1 to 4; details: plain residues with an end cap or a label only (N-terminal biotin on a linker: ado-ado)

| Binder | pKd |
| --- | --- |
| B1 | 4.19 |
| B2 | 3.73 |

target: FRMPD2_2, Q68DX3; experiment: holdup assay; design: key: below the threshold = too weak to quantify, mostly under pKd 3.1 to 4; details: plain residues with an end cap or a label only (N-terminal biotin on a linker: ado-ado)
Sequence (Q68DX3 944-1038): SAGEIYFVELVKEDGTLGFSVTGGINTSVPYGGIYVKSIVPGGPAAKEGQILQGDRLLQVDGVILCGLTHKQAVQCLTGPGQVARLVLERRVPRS

| Binder | pKd |
| --- | --- |
| B1 | below the threshold |
| B2 | 3.5 |

target: T7, PCLO, Q9Y6V0; experiment: holdup assay; design: key: below the threshold = too weak to quantify, mostly under pKd 3.1 to 4; details: plain residues with an end cap or a label only (N-terminal biotin on a linker: ado-ado)

| Binder | pKd |
| --- | --- |
| B1 | below the threshold |
| B2 | below the threshold |

target: IL16_4, Q14005; experiment: holdup assay; design: key: below the threshold = too weak to quantify, mostly under pKd 3.1 to 4; details: plain residues with an end cap or a label only (N-terminal biotin on a linker: ado-ado)
Sequence (Q14005 1229-1329): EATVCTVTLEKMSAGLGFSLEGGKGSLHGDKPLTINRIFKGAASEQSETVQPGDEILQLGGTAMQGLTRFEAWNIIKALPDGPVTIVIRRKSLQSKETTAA

| Binder | pKd |
| --- | --- |
| B1 | below the threshold |
| B2 | 3.78 |

target: PDLIM1, O00151; experiment: holdup assay; design: key: below the threshold = too weak to quantify, mostly under pKd 3.1 to 4; details: plain residues with an end cap or a label only (N-terminal biotin on a linker: ado-ado)
Sequence (O00151 1-87): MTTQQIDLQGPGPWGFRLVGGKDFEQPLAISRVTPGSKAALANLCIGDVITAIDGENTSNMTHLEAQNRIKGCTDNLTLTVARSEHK

| Binder | pKd |
| --- | --- |
| B1 | below the threshold |
| B2 | 3.48 |

target: T8, SNTG1, Q9NSN8; experiment: holdup assay; design: key: below the threshold = too weak to quantify, mostly under pKd 3.1 to 4; details: plain residues with an end cap or a label only (N-terminal biotin on a linker: ado-ado)

| Binder | pKd |
| --- | --- |
| B1 | 3.65 |
| B2 | 3.68 |

target: LAP2, Q96RT1; experiment: holdup assay; design: key: below the threshold = too weak to quantify, mostly under pKd 3.1 to 4; details: plain residues with an end cap or a label only (N-terminal biotin on a linker: ado-ado)
Sequence (Q96RT1 other isoform, or with tags, fused parts or gaps): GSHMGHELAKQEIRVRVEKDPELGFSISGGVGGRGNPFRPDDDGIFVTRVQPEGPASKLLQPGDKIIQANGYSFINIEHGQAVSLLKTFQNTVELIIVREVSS

| Binder | pKd |
| --- | --- |
| B1 | 3.56 |
| B2 | below the threshold |

target: SCRIB_3, Q14160; experiment: holdup assay; design: key: below the threshold = too weak to quantify, mostly under pKd 3.1 to 4; details: plain residues with an end cap or a label only (N-terminal biotin on a linker: ado-ado)
Sequence (Q14160 999-1103): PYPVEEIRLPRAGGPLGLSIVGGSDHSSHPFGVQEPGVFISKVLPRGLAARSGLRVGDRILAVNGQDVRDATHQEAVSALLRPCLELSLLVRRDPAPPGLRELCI

| Binder | pKd |
| --- | --- |
| B1 | 3.56 |
| B2 | 5.06 |

target: HTRA1, Q92743; experiment: holdup assay; design: key: below the threshold = too weak to quantify, mostly under pKd 3.1 to 4; details: plain residues with an end cap or a label only (N-terminal biotin on a linker: ado-ado)
Sequence (Q92743 360-477): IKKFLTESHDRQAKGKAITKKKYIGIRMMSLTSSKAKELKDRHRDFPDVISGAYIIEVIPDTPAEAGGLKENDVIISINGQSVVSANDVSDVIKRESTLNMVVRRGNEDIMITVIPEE

| Binder | pKd |
| --- | --- |
| B1 | 4.25 |
| B2 | 3.58 |

target: T9, LIN7A, O14910; experiment: holdup assay; design: key: below the threshold = too weak to quantify, mostly under pKd 3.1 to 4; details: plain residues with an end cap or a label only (N-terminal biotin on a linker: ado-ado)

| Binder | pKd |
| --- | --- |
| B1 | below the threshold |
| B2 | below the threshold |

target: GORASP2, Q9H8Y8; experiment: holdup assay; design: key: below the threshold = too weak to quantify, mostly under pKd 3.1 to 4; details: plain residues with an end cap or a label only (N-terminal biotin on a linker: ado-ado)

| Binder | pKd |
| --- | --- |
| B1 | 4.18 |
| B2 | below the threshold |

target: ARHGEF12, Q9NZN5-2; experiment: holdup assay; design: key: below the threshold = too weak to quantify, mostly under pKd 3.1 to 4; details: plain residues with an end cap or a label only (N-terminal biotin on a linker: ado-ado)
Sequence (Q9NZN5 other isoform, or with tags, fused parts or gaps): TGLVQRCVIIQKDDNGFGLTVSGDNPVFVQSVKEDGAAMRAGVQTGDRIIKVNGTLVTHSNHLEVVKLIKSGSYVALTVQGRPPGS

| Binder | pKd |
| --- | --- |
| B1 | 3.59 |
| B2 | 5.58 |

target: T10, DVL3, Q92997; experiment: holdup assay; design: key: below the threshold = too weak to quantify, mostly under pKd 3.1 to 4; details: plain residues with an end cap or a label only (N-terminal biotin on a linker: ado-ado)

| Binder | pKd |
| --- | --- |
| B1 | below the threshold |
| B2 | below the threshold |

target: NHERF4_1, Q86UT5-2; experiment: holdup assay; design: key: below the threshold = too weak to quantify, mostly under pKd 3.1 to 4; details: plain residues with an end cap or a label only (N-terminal biotin on a linker: ado-ado)
Sequence (Q86UT5 other isoform, or with tags, fused parts or gaps): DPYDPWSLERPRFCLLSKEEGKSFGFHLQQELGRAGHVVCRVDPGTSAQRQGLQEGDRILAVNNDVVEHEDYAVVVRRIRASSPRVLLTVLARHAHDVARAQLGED

| Binder | pKd |
| --- | --- |
| B1 | 3.78 |
| B2 | 4.76 |

target: GRID2IP_1, A4D2P6; experiment: holdup assay; design: key: below the threshold = too weak to quantify, mostly under pKd 3.1 to 4; details: plain residues with an end cap or a label only (N-terminal biotin on a linker: ado-ado)
Sequence (A4D2P6 1-87): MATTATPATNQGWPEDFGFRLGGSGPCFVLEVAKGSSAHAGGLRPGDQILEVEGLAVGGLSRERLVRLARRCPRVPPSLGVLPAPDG

| Binder | pKd |
| --- | --- |
| B1 | below the threshold |
| B2 | below the threshold |

target: T11, DLG3_1, Q92796; experiment: holdup assay; design: key: below the threshold = too weak to quantify, mostly under pKd 3.1 to 4; details: plain residues with an end cap or a label only (N-terminal biotin on a linker: ado-ado)

| Binder | pKd |
| --- | --- |
| B1 | 3.5 |
| B2 | 3.61 |

target: T12, PDZRN3_1, Q9UPQ7; experiment: holdup assay; design: key: below the threshold = too weak to quantify, mostly under pKd 3.1 to 4; details: plain residues with an end cap or a label only (N-terminal biotin on a linker: ado-ado)

| Binder | pKd |
| --- | --- |
| B1 | below the threshold |
| B2 | 4.36 |

target: Inadl_8, Q8NI35; experiment: holdup assay; design: key: below the threshold = too weak to quantify, mostly under pKd 3.1 to 4; details: plain residues with an end cap or a label only (N-terminal biotin on a linker: ado-ado)
Sequence (Q8NI35 1425-1530): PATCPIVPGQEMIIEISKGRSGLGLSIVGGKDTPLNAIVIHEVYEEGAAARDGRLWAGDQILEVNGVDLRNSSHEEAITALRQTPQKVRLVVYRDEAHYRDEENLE

| Binder | pKd |
| --- | --- |
| B1 | below the threshold |
| B2 | 3.62 |
